Data as given in patent US20220242950A1 (CANTARGIA, published 2022).
Numbering of substitutions follows the chain as printed. Each block holds one binder with its values, some of them ahead of it.

Legend:
[1] = biological target: T1, human IL1RAP on the cell surface (human, UniProt Q9NPH3 21-570); experiment: cell-based or functional assay
T1 sequence (looked up): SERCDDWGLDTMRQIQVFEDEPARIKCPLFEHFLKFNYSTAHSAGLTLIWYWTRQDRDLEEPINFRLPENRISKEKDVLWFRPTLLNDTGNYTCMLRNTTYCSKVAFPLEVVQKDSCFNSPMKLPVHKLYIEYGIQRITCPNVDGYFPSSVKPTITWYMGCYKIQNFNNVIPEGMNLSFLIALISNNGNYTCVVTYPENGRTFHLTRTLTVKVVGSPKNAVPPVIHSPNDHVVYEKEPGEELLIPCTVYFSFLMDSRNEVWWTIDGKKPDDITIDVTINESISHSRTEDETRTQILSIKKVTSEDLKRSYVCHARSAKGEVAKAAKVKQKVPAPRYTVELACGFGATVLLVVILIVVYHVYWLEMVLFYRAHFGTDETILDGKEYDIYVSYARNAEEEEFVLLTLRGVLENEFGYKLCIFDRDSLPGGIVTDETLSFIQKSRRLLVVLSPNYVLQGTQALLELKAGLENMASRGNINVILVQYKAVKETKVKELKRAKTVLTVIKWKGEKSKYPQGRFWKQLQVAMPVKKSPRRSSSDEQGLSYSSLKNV

[2] = biological target: T2, recombinant mf IL1RAP aa21-367 (cynomolgus monkey (Macaca fascicularis), UniProt A0A2K5X5J5 21-367); experiment: binding ELISA, coated recombinant mf IL1RAP aa21-367
T2 construct: also called cynomolgus monkey IL1RAP; cyno IL1RAP
T2 sequence: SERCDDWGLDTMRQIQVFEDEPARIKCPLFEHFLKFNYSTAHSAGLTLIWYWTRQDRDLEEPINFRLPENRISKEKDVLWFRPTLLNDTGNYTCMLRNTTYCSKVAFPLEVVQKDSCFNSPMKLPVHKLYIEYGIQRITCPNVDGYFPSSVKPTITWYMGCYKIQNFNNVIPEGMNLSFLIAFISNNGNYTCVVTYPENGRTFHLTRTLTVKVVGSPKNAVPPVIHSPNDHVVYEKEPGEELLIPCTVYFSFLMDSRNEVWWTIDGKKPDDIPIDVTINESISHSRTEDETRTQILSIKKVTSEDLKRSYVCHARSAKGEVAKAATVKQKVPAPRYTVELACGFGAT

[3] = biological target: T3, recombinant hIL1RAP Domain1+2+3 (aa21-367) (human, UniProt Q9NPH3 21-367); experiment: bio-layer interferometry, human IL1RAP
T3 construct: Numbering on Uniprot Q9NPH3
T3 sequence (looked up): T2 sequence with F183L, P273T, T326K
Procedure: Affinity measurements were done on BLItz™ Label-Free Protein Analysis System from ForteBio, using the Basic Kinetics module in the BLItz Pro 1.3.1.3 software from Molecular Devices. Protein A biosensors were hydrated in blocking buffer (PBS, 0.5% BSA, 0.05% Tween 20, pH 7.4) for minimum 10 min at room temperature before coating. Protein A biosensors were coated with antibodies by dipping the biosensors in 200 μl of antibody solution (10 μg/ml in blocking buffer) for 30 min at room temperature. The sensors were then incubated in 200 μl blocking buffer for at least 10 min before use. […] The baseline was made in blocking buffer with a duration time of 30 sec. Association was made for 120 sec in hIL1RAP followed by 120 sec dissociation in blocking buffer.
The antibodies were characterized for A) binding (ELISA analysis, human and cynomolgus monkey IL1RAP), B) inhibition of cytokine signaling (HEK-Blue™ assay), C) affinity (Bio-layer interferometry), D) size heterogeneity (SE-HPLC) and E) yield (concentration, A280). […] SE-HPLC was performed using standard procedures and PBS as running buffer. Affinity and cytokine inhibition were measured as previously described in Example 10. All 25 humanized clones were analyzed for blocking activity on IL-1α, IL-1β and IL-33 signaling while only the clones that had retained the inhibitory activity similar to chimeric 48D2 were analyzed for IL-36 inhibition.
KD values for affinity towards human IL1RAP are shown in Table 11 for the humanized 48D2 variants. Affinity was measured using bio-layer interferometry. […] See also Table 4 for a direct comparison of chimeric 48D2, humanized 48D2 variant VH5:VL4, and a humanized and de-immunized 48D2 variant VH5.GL:VL4.

[4] = biological target: T3, recombinant hIL1RAP Domain1+2+3 …; experiment: binding ELISA, coated recombinant hIL1RAP aa21-367

IC50 of IL-1β signaling (HEK-Blue assay) [1]: 0.000882 µM | IC50 of IL-33 signaling (HEK-Blue assay) [1]: 0.0458 µM | IC50 [2]: 0.0292 µg/mL | Kd [3]: 0.00733 µM | IC50 [4]: 0.0261 µg/mL
B1: h48D2 VH2:VL2 (antibody, human IgG1, kappa, L234A L235A, V domains shown)
VH: EVQLVESGGALVQPGGSLRLSCIVSGPSLSHFDITWFRQAPGKGLEWVATISPGVSTYYASWAKSRFTISTDTSKNTLFLQMDSLRAEDTAVYYCARGGVGSSWKAFDLWGPGTLVTVSS
VL: QIVLTQSPATLSASVGDRVTITCQASESISTALAWYQQKPGKAPKLLIYKASTLPSGVPSRFSGSGSGTEFTLTISSLQPDDSATYYCQQGFSSGNVHNAFGQGTKLEIKR
notes: Humanized; also called VL2:VH2

IC50 of IL-1β signaling (HEK-Blue assay) [1]: 0.00366 µM | IC50 of IL-33 signaling (HEK-Blue assay) [1]: 1.95 µM | IC50 [2]: 0.0314 µg/mL | Kd [3]: 0.0121 µM | IC50 [4]: 0.0273 µg/mL
B2: h48D2 VH2:VL3 (antibody, human IgG1, kappa, L234A L235A, V domains shown)
VH: B1 VH
VL: DILLTQTPSVVSASVGDRVTITCQASESISTALAWYQQKPGQAPRLLIYKASTLPSGVPSRFRGSGSGTDFTLTITSLQPEDFATYYCQQGFSSGNVHNAFGGGTRLEIKR
notes: Humanized; also called VL3:VH2

IC50 of IL-1β signaling (HEK-Blue assay) [1]: 0.00555 µM | IC50 [2]: 0.0291 µg/mL | Kd [3]: 0.0132 µM | IC50 [4]: 0.0322 µg/mL
B3: h48D2 VH4:VL2 (antibody, human IgG1, kappa, L234A L235A, V domains shown)
VH: QVQLQESGPGLVKPSETLSLTCTVSGPSLSHFDITWIRQPPGKGLEWIGTISPGVSTYYASWAKSRFTISVDTSKNQFSLKLTSVTAADTATYYCARGGVGSSWKAFDLWGPGTLVTVSS
VL: B1 VL
notes: Humanized; also called VL2:VH4

IC50 of IL-1β signaling (HEK-Blue assay) [1]: 0.0223 µM | IC50 [2]: 0.0303 µg/mL | Kd [3]: 0.0296 µM | IC50 [4]: 0.0263 µg/mL
B4: h48D2 VH3:VL4 (antibody, human IgG1, kappa, L234A L235A, V domains shown)
VH: EVQLLESGGGLVLPGGSLRLSCAASGPSLSHFDITWVRQAPGKGLEWVSTISPGVSTYYASWAKSRFTISRDNSKNTLYLQMSSLRAEDTAVYYCARGGVGSSWKAFDLWGLGTTVTVSS
VL: ELVMTQSPSSVSASVGDRVTITCQASESISTALAWYQQKPGKAPKLLIYKASTLPSGVPSRFSGSGSGTDFTLTINSLQPEDFATYYCQQGFSSGNVHNAFGGGTKVEIKR
notes: Humanized; also called VL4:VH3

IC50 of IL-1β signaling (HEK-Blue assay) [1]: 0.0105 µM | IC50 [2]: 0.0279 µg/mL | Kd [3]: 0.0274 µM | IC50 [4]: 0.0281 µg/mL
B5: h48D2 VH3:VL3 (antibody, human IgG1, kappa, L234A L235A, V domains shown)
VH: B4 VH
VL: B2 VL
notes: Humanized; also called VL3:VH3

IC50 of IL-1β signaling (HEK-Blue assay) [1]: 0.00295 µM | IC50 [2]: 0.0316 µg/mL | Kd [3]: 0.0197 µM | IC50 [4]: 0.0308 µg/mL
B6: h48D2 VH4:VL1 (antibody, human IgG1, kappa, L234A L235A, V domains shown)
VH: B3 VH
VL: B4 VL with E1D, L2I, V11L, N76S, E108V
notes: Humanized; also called VL1:VH4

IC50 of IL-1α signaling (HEK-Blue assay) [1]: ~4130 µM | IC50 of IL-1β signaling (HEK-Blue assay) [1]: 0.00136 µM | IC50 of IL-33 signaling (HEK-Blue assay) [1]: 0.0864 µM | IC50 [2]: 0.0312 µg/mL | Kd [3]: 0.0112 µM | IC50 [4]: 0.0262 µg/mL
B7: h48D2 VH2:VL4 (antibody, human IgG1, kappa, L234A L235A, V domains shown)
VH: B1 VH
VL: B4 VL
notes: Humanized; also called VL4:VH2

IC50 of IL-1β signaling (HEK-Blue assay) [1]: 0.00911 µM | IC50 of IL-33 signaling (HEK-Blue assay) [1]: 0.474 µM | IC50 [2]: 0.0274 µg/mL | Kd [3]: 0.0224 µM | IC50 [4]: 0.0258 µg/mL
B8: h48D2 VH3:VL2 (antibody, human IgG1, kappa, L234A L235A, V domains shown)
VH: B4 VH
VL: B1 VL
notes: Humanized; also called VL2:VH3

IC50 of IL-1α signaling (HEK-Blue assay) [1]: 0.528 µM | IC50 of IL-1β signaling (HEK-Blue assay) [1]: 0.0202 µM | IC50 of IL-33 signaling (HEK-Blue assay) [1]: 0.0747 µM | IC50 [2]: 0.0242 µg/mL | Kd [3]: 0.0316 µM | IC50 [4]: 0.0234 µg/mL
B9: h48D2 VH1:VL5 (antibody, human IgG1, kappa, L234A L235A, V domains shown)
VH: B4 VH with L5E, L13K, S83N, L112R, T115L
VL: APVLTQSPATLEASVGDRVTITCQASESISTALAWYQQKPGQPPKLLIYKASTLPSGVPSRFSGSGSGTEFTLTISDLESDDAATYYCQQGFSSGNVHNAFGGGTEVVVKR
notes: Humanized; also called VL5:VH1

IC50 of IL-1β signaling (HEK-Blue assay) [1]: 0.00467 µM | IC50 of IL-33 signaling (HEK-Blue assay) [1]: 0.26 µM | IC50 [2]: 0.0251 µg/mL | Kd [3]: 0.0228 µM | IC50 [4]: 0.0243 µg/mL
B10: h48D2 VH4:VL4 (antibody, human IgG1, kappa, L234A L235A, V domains shown)
VH: B3 VH
VL: B4 VL
notes: Humanized; also called VL4:VH4

IC50 of IL-1α signaling (HEK-Blue assay) [1]: 0.401 µM | IC50 of IL-1β signaling (HEK-Blue assay) [1]: 0.00577 µM | IC50 of IL-33 signaling (HEK-Blue assay) [1]: 0.183 µM | IC50 [2]: 0.0279 µg/mL | Kd [3]: 0.012 µM | IC50 [4]: 0.0249 µg/mL
B11: h48D2 VH2:VL5 (antibody, human IgG1, kappa, L234A L235A, V domains shown)
VH: B1 VH
VL: B9 VL
notes: Humanized; also called VL5:VH2

IC50 of IL-1α signaling (HEK-Blue assay) [1]: 0.288 µM | IC50 of IL-1β signaling (HEK-Blue assay) [1]: 0.00987 µM | IC50 of IL-33 signaling (HEK-Blue assay) [1]: 0.474 µM | IC50 [2]: 0.0279 µg/mL | Kd [3]: 0.0344 µM | IC50 [4]: 0.0232 µg/mL
B12: h48D2 VH3:VL5 (antibody, human IgG1, kappa, L234A L235A, V domains shown)
VH: B4 VH
VL: B9 VL
notes: Humanized; also called VL5:VH3

IC50 of IL-1β signaling (HEK-Blue assay) [1]: 0.00297 µM | IC50 of IL-33 signaling (HEK-Blue assay) [1]: 7.03 µM | IC50 [2]: 0.0302 µg/mL | Kd [3]: 0.0167 µM | IC50 [4]: 0.0312 µg/mL
B13: h48D2 VH4:VL3 (antibody, human IgG1, kappa, L234A L235A, V domains shown)
VH: B3 VH
VL: B2 VL
notes: Humanized; also called VL3:VH4
